Source: patent US20080026998 (published 2008)
Numbering of substitutions follows the chain as printed. In names and notes the source's numbering stands. Like-named read-outs stand apart in the source and are kept apart here. Values belong to the binder of their own block, whether it stands above or below them.

Columns and labels:
plasmin [1] = molecular target: T1, plasmin (human, UniProt P00747)
T1 chain: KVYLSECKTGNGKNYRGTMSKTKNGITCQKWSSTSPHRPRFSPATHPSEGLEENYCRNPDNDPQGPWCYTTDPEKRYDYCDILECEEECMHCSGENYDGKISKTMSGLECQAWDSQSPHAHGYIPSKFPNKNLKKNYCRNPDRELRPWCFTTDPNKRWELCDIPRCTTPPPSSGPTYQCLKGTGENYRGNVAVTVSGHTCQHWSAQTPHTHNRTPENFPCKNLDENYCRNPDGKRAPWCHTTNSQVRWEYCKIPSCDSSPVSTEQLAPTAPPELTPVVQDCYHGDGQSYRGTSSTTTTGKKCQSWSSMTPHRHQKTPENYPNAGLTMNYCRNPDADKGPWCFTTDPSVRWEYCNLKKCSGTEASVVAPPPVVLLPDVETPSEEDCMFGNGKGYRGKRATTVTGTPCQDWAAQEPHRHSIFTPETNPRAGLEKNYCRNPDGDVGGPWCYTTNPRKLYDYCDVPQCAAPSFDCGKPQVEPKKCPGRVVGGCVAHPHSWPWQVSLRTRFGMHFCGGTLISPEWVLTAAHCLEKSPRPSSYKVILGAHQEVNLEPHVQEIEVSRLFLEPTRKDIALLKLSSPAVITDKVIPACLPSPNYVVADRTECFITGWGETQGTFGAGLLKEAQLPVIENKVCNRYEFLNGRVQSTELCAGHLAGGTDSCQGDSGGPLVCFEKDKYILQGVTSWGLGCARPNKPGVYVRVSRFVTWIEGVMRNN

plasmin [2] = molecular target: T1, plasmin
plasmin [3] = molecular target: T1, plasmin
plasmin [4] = molecular target: T1, plasmin
plasmin [5] = molecular target: T1, plasmin

Ki (plasmin [1]): 9.7 nM
Ki (plasmin [2]): 7.5 nM
Ki (plasmin [3]): 5.3 nM
Ki (plasmin [4]): 6.4 nM
B1: KD1 wild-type (protein)
chain: DAAQEPTGNNAEICLLPLDYGPCRALLLRYYYDRYTQSCRQFLYGGCEGNANNFYTWEACDDACWRIEKVPKV

Ki (plasmin [1]): 1.06 nM
Ki (plasmin [2]): 1.5 nM
Ki (plasmin [5]): 2.2 nM
Ki (plasmin [3]): 0.625 nM
Ki (plasmin [4]): 1.25 nM
B2: KD1 R24K/L26R (protein)
chain: B1 chain with R24K, L26R

Ki (plasmin [1]): 1.33 nM
Ki (plasmin [2]): 4.6 nM
Ki (plasmin [3]): 1.1 nM
Ki (plasmin [4]): 1.02 nM
B3: KD1 R24K (protein)
chain: B1 chain with R24K
